Results taken from the supplement of paper PMC10567573.

B1: WEE1 (parent)
chain: INPFTPDSLLLHSSGQCRRRKRTY

Variants of: B1
Assay: protein stability index of a GFP-peptide fusion (GPS, HEK-293T) (PSI 1-6); higher = more stable
Conditions: c terminus: a fixed tail appended
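Note: lentivirally expressed fusions sorted by FACS into six bins by GFP to DsRed ratio, PSI derived from sequencing read proportions per bin multiplied by bin number.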

Protein stability index of substitutions, site by site:
D7: R 3.39; A 3.13; P 3.09; V 2.63; C 2.46; I 2.55; F 2.12; S 3.14; W 3.99; G 2.24
Y24: F 3.12; D 4.27; L 3.04; C 3.8; A 4.33; S 4.45; I 3.01; P 3.81; K 4.27; T 3.96; W 3.36; Q 3.69; H 3.75; R 4.52
K21: R 3.11; Q 2.46; W 2.4; E 3.16; I 3; T 2.83; D 2.9; N 3.59; P 3.08; G 3.58; M 3.25; V 3.16; F 2.42; C 2.02; S 3.18
I1: P 4.36; H 3.89; K 3.62; T 3.87; N 4.17; M 3.33; A 4.07; C 3.17; W 3.83
G15: L 3.56; H 2.72; M 2.84; S 3.02; T 3.21; P 3.05; W 2.54; I 2.92; C 2.26; E 3.41; D 3.39; N 3.89; Y 2.9; Q 3.72
P6: A 4; D 3.87; I 2.79; E 3.71; Y 2.56; C 3.04; Q 3.09; V 2.07; F 2.64; W 2.21
Q16: L 2.81; M 2.92; S 3.61; G 3.5; R 3.95; V 2.97; C 2.8; H 3.06; Y 3.52; I 3.56; T 3.41; W 2.51; F 2.65
L9: T 3.67; D 4.2; G 4.28; V 3.76; C 3.35; E 3.96; A 3.61; N 3.83; I 3.25; R 3.74; S 4.06; F 2.94; Q 3.68; W 3.32
T23: I 2.78; P 3.26; S 3.93; L 3.5; W 2.79; R 3.56; Y 3.38; K 4.29; Q 3.42; E 3.37; M 3.6; G 3.87; D 4.11; C 2.7
T5: D 4.01; S 3.23; H 3.33; M 2.89; V 3.71; W 2.51; N 3.24; L 3.04; Y 2.93; G 3.76; K 3.45; A 3.93; F 2.67; P 2.95; R 3.41
C17: A 3.64; K 4.12; S 4; R 3.16; L 4; G 3.69; E 4.09; M 4.1; Q 4.4; D 4.42; T 4.03; P 4.37; N 3.85; I 4.01; V 3.22; H 3.44
S14: Q 3.89; P 3.54; W 2.46; A 3.3; H 2.93; K 2.98; M 2.42; D 3.94; V 2.62; L 2.35; N 3.61; E 4.31; C 2.41; F 2.51
S8: M 2.75; D 4; E 4.08; K 3.35; L 2.82; Y 2.65; R 2.71; V 3.25; T 2.81; A 3.42; N 3.75; C 2.73; Q 3.73; F 2.5; G 3.44; P 2.77
P3: S 3.51; T 3.06; D 3.33; Q 3.35; I 2.69; W 1.3; H 3.93; F 2.33; K 3.1; E 3.44; N 3.12; M 2.99; G 3.11; Y 2.38; A 3.21
R20: L 2.75; N 3.45; V 2.94; F 2.48; T 3.32; A 3.08; P 3.12; M 2.85; G 3.41; E 3.15; I 2.95; D 3.12; Y 2.61; H 3.62; K 3.23
R19: M 2.91; I 3.88; Q 3.27; W 2.66; P 3.03; C 3.01; D 3.52; E 3.8; T 2.78; F 2.62; V 2.69; N 3.38; L 3.03; A 3.08
S13: N 3.74; C 2.21; T 3.74; F 2.3; W 2.54; D 4.08; A 2.6; M 2.84; K 3.69; P 3.63; L 2.64; E 4.01; I 2.85; G 3.17
R22: M 3.08; G 3.55; W 2.27; N 3.91; K 3.59; T 3.45; H 3.5; S 3.31; E 3.1; P 3.23; Q 3.19; L 2.92
F4: H 4.25; V 4.08; Q 4.22; A 4.11; S 4.18; T 4.38; N 4.08; K 4.27; W 3.87; R 3.77; I 3.79; D 3.99; L 3.2; C 3.67; E 4.48
L10: W 3.43; Q 3.5; N 3.85; F 3.42; I 3.61; H 4.01; T 4.03; G 3.83; V 3.81; R 3.76; C 3.68; Y 2.89; E 3.41; P 4.07; M 3.38
L11: K 4.2; C 3.75; W 2.99; H 3.47; M 3.94; A 3.76; V 3.04; T 3.54; D 4.11; E 4.42; I 3.97; N 3.92; P 4.55; Y 3.75
R18: K 3.26; Y 3.58; V 3.83; H 3.39; T 3.48; A 3.46; G 3.31; Q 3.63; F 2.9; L 3.2; E 3.67; I 2.86; N 3.12; S 3.41; P 3.57; M 2.81
N2: K 2.83; C 3.69; F 2.35; A 3.09; T 3.59; L 2.37; V 3.39; M 3.08; R 2.9; G 3.48; Q 3.57; P 3.29; W 2.39; I 2.36; H 3.19
H12: K 3.54; L 2.86; N 3.19; E 4.06; C 2.57; R 3.59; W 2.19; F 3.03; G 3.18; A 3.61; M 3.32; Q 2.94; I 3.6; Y 2.89; S 3.87
